Target: soluble His-tagged Apo-2L (UniProt P50591)
Assay: KinExA; column head 'Affinity (pM)'

UniProt P50591, sequence (P50591 114-281 limits assumed): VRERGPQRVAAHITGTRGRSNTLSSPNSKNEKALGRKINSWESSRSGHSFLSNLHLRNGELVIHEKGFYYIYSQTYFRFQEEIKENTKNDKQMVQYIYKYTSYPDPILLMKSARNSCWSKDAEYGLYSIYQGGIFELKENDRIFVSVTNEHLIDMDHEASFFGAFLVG

With DR5-IgG (Fc fusion) the Kd was 1 pM.

Reference: patent publication US20040120947A1
